Data published in article PMC10397247.

T1: O2-bH
T1 chain: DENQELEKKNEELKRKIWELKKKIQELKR

T2: O9-bH
T2 chain: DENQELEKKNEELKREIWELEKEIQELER

T3: O6-bH
T3 chain: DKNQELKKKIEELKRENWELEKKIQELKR

T4: O3-bH
T4 chain: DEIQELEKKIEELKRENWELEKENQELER

T5: O16-bH
T5 chain: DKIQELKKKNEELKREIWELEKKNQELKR

T6: O7-bH
T6 chain: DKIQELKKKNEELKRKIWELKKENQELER

T7: O4-bH
T7 chain: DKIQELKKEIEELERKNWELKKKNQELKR

T8: O8-bH
T8 chain: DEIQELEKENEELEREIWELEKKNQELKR

T9: O5-bH
T9 chain: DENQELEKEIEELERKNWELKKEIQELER

T10: O15-bH
T10 chain: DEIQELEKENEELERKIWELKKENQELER


Legend:
Assay in all cases: two-hybrid library CCNG1;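 further: natural log of median RNA to DNA barcode read ratio; higher means stronger binding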
[1] = target: T1, O2-bH
[2] = target: T2, O9-bH
[3] = target: T3, O6-bH
[4] = target: T4, O3-bH
[5] = target: T5, O16-bH
[6] = target: T6, O7-bH
[7] = target: T7, O4-bH
[8] = target: T8, O8-bH
[9] = target: T9, O5-bH
[10] = target: T10, O15-bH

Row | Binder | interaction score [1] | interaction score [2] | interaction score [3] | interaction score [4] | interaction score [5] | interaction score [6] | interaction score [7] | interaction score [8] | interaction score [9] | interaction score [10]
1 | DKIQELKKKNEELKREIWELEKKNQELKR [O16-bH] | -1.39 | -0.421 | 1.06 | 1.41 | 0.441 | 1.17 | 0.0481 | 0.7 | -0.611 | –
2 | DEIQELEKENEELERKIWELKKENQELER [O15-bH] | -0.549 | -0.267 | -0.0351 | -0.38 | 1.62 | 1.73 | -1.19 | 0.416 | -1.6 | 0.268
3 | DKNQELKKKIEELKRKNWELKKEIQELER [O13-bH] | -2.29 | -0.0315 | -0.527 | 0.496 | -1.44 | -0.211 | -0.471 | 0.569 | 0.194 | 1.51
4 | DENQELEKEIEELERENWELEKKIQELKR [O14-bH] | -1.83 | 0.497 | 1.63 | -0.0193 | 1.45 | 1.56 | 0.39 | -1.78 | -1.91 | 1.43
